In patent publication US20130005646A1 (Novo Nordisk, published 2013):
Starred links: 1 amine or outer side, 2 acyl side, 3 side chain; linkers in the order of their positions; H or OH if unused. Positions of bridges follow the written chain, without caps; N, C: chain ends. *: point of attachment. C20 diacid = O=C(O)CCCCCCCCCCCCCCCCCCC(=O)*; 19‑carboxyheptadecanoyl = not defined here; γGlu = O=C(O)[C@H](CCC(=O)[*:2])N[*:1]; AEEA = NCCOCCOCC(=O)O

T1: human calcitonin (a) receptor (human, UniProt P30988 25-474)
T1 sequence (looked up): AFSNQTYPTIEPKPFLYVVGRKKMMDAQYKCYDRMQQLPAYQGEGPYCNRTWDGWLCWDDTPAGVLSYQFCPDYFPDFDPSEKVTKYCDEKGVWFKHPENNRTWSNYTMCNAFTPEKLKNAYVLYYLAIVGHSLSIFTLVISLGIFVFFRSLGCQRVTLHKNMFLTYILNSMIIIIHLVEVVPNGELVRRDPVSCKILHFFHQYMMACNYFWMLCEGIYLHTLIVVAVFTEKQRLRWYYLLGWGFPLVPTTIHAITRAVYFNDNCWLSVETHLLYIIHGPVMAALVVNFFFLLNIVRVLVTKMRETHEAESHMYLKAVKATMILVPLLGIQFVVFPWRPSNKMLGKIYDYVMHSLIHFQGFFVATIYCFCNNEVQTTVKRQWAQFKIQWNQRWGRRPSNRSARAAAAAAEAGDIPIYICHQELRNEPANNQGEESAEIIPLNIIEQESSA

T2: human amylin 3(a) receptor (human calcitonin receptor + RAMP-3) (human, UniProt P30988 25-474; O60896 24-148)
T2 sequence (looked up) 1: T1 sequence (looked up)
T2 sequence (looked up) 2: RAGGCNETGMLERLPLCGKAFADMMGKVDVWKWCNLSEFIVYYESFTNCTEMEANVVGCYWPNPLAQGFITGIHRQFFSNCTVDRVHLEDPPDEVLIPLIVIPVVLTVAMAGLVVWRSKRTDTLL

B1: N-alpha-[(S)-4-Carboxy-4-(19-carboxynonadecanoylamino)butyryl]-Glu-Arg-[Glu1,Glu14,Arg17,Gln21,Gln31,Gln35,Pro37]-pramlintide (peptide)
peptide: {C20 diacid-γGlu}-ERECNTATCATQRLAEFLRHSSQNFGPILPPTQVGSQTP-NH2
modifications: disulfide 4-9
SMILES: CC[C@H](C)[C@H](NC(=O)[C@@H]1CCCN1C(=O)CNC(=O)[C@H](Cc1ccccc1)NC(=O)[C@H](CC(N)=O)NC(=O)[C@H](CCC(N)=O)NC(=O)[C@H](CO)NC(=O)[C@H](CO)NC(=O)[C@H](Cc1c[nH]cn1)NC(=O)[C@H](CCCNC(=N)N)NC(=O)[C@H](CC(C)C)NC(=O)[C@H](Cc1ccccc1)NC(=O)[C@H](CCC(=O)O)NC(=O)[C@H](C)NC(=O)[C@H](CC(C)C)NC(=O)[C@H](CCCNC(=N)N)NC(=O)[C@H](CCC(N)=O)NC(=O)[C@@H](NC(=O)[C@H](C)NC(=O)[C@@H]1CSSC[C@H](NC(=O)[C@H](CCC(=O)O)NC(=O)[C@H](CCCNC(=N)N)NC(=O)[C@H](CCC(=O)O)NC(=O)CC[C@H](NC(=O)CCCCCCCCCCCCCCCCCCC(=O)O)C(=O)O)C(=O)N[C@@H](CC(N)=O)C(=O)N[C@@H]([C@@H](C)O)C(=O)N[C@@H](C)C(=O)N[C@@H]([C@@H](C)O)C(=O)N1)[C@@H](C)O)C(=O)N[C@@H](CC(C)C)C(=O)N1CCC[C@H]1C(=O)N1CCC[C@H]1C(=O)N[C@H](C(=O)N[C@@H](CCC(N)=O)C(=O)N[C@H](C(=O)NCC(=O)N[C@@H](CO)C(=O)N[C@@H](CCC(N)=O)C(=O)N[C@H](C(=O)N1CCC[C@H]1C(N)=O)[C@@H](C)O)C(C)C)[C@@H](C)O
B2: N-alpha-[2-(2-{2-[2-(2-{2-[(S)-4-Carboxy-4-(19-carboxyheptadecanoylamino)butyrylamino]ethoxy}ethoxy)acetylamino]ethoxy}ethoxy)acetyl]-[Glu14,His17,Glu21,Pro37]- … (peptide)
peptide: {19‑carboxyheptadecanoyl-γGlu-AEEA-AEEA}-KCNTATCATQRLAEFLHHSSENFGPILPPTNVGSNTP-NH2
modifications: disulfide 2-7; reading uncertain; also: printed as N-alpha-[2-(2-{2-[2-(2-{2-[(S)-4-Carboxy-4-(19-carboxyheptadecanoylamino)butyrylamino]ethoxy}ethoxy)acetylamino]ethoxy}ethoxy)acetyl]-[Glu14,His17,Glu21,Pro37]-pramlintide
B3: N-alpha-[(S)-4-Carboxy-4-(19-carboxynonadecanoylamino)butyryl]-Glu-Arg-[Glu1,Glu14,Arg17,Gln21,Gln22,Gln31,Gln35,Pro37]-pramlintide (peptide)
peptide: {C20 diacid-γGlu}-ERECNTATCATQRLAEFLRHSSQQFGPILPPTQVGSQTP-NH2
modifications: disulfide 4-9
SMILES: CC[C@H](C)[C@H](NC(=O)[C@@H]1CCCN1C(=O)CNC(=O)[C@H](Cc1ccccc1)NC(=O)[C@H](CCC(N)=O)NC(=O)[C@H](CCC(N)=O)NC(=O)[C@H](CO)NC(=O)[C@H](CO)NC(=O)[C@H](Cc1c[nH]cn1)NC(=O)[C@H](CCCNC(=N)N)NC(=O)[C@H](CC(C)C)NC(=O)[C@H](Cc1ccccc1)NC(=O)[C@H](CCC(=O)O)NC(=O)[C@H](C)NC(=O)[C@H](CC(C)C)NC(=O)[C@H](CCCNC(=N)N)NC(=O)[C@H](CCC(N)=O)NC(=O)[C@@H](NC(=O)[C@H](C)NC(=O)[C@@H]1CSSC[C@H](NC(=O)[C@H](CCC(=O)O)NC(=O)[C@H](CCCNC(=N)N)NC(=O)[C@H](CCC(=O)O)NC(=O)CC[C@H](NC(=O)CCCCCCCCCCCCCCCCCCC(=O)O)C(=O)O)C(=O)N[C@@H](CC(N)=O)C(=O)N[C@@H]([C@@H](C)O)C(=O)N[C@@H](C)C(=O)N[C@@H]([C@@H](C)O)C(=O)N1)[C@@H](C)O)C(=O)N[C@@H](CC(C)C)C(=O)N1CCC[C@H]1C(=O)N1CCC[C@H]1C(=O)N[C@H](C(=O)N[C@@H](CCC(N)=O)C(=O)N[C@H](C(=O)NCC(=O)N[C@@H](CO)C(=O)N[C@@H](CCC(N)=O)C(=O)N[C@H](C(=O)N1CCC[C@H]1C(N)=O)[C@@H](C)O)C(C)C)[C@@H](C)O
B4: N-alpha-[(S)-4-Carboxy-4-(19-carboxynonadecanoylamino)butyryl]-[Glu14,Arg18,Ser21,Ser22,Ser28,Ser29,Asp31,Asp35,Pro37]-pramlintide (peptide)
peptide: {C20 diacid-γGlu}-KCNTATCATQRLAEFLVRSSSSFGPILSSTDVGSDTP-NH2
modifications: disulfide 2-7
SMILES: CC[C@H](C)[C@H](NC(=O)[C@@H]1CCCN1C(=O)CNC(=O)[C@H](Cc1ccccc1)NC(=O)[C@H](CO)NC(=O)[C@H](CO)NC(=O)[C@H](CO)NC(=O)[C@H](CO)NC(=O)[C@H](CCCNC(=N)N)NC(=O)[C@@H](NC(=O)[C@H](CC(C)C)NC(=O)[C@H](Cc1ccccc1)NC(=O)[C@H](CCC(=O)O)NC(=O)[C@H](C)NC(=O)[C@H](CC(C)C)NC(=O)[C@H](CCCNC(=N)N)NC(=O)[C@H](CCC(N)=O)NC(=O)[C@@H](NC(=O)[C@H](C)NC(=O)[C@@H]1CSSC[C@H](NC(=O)[C@H](CCCCN)NC(=O)CC[C@H](NC(=O)CCCCCCCCCCCCCCCCCCC(=O)O)C(=O)O)C(=O)N[C@@H](CC(N)=O)C(=O)N[C@@H]([C@@H](C)O)C(=O)N[C@@H](C)C(=O)N[C@@H]([C@@H](C)O)C(=O)N1)[C@@H](C)O)C(C)C)C(=O)N[C@@H](CC(C)C)C(=O)N[C@@H](CO)C(=O)N[C@@H](CO)C(=O)N[C@H](C(=O)N[C@@H](CC(=O)O)C(=O)N[C@H](C(=O)NCC(=O)N[C@@H](CO)C(=O)N[C@@H](CC(=O)O)C(=O)N[C@H](C(=O)N1CCC[C@H]1C(N)=O)[C@@H](C)O)C(C)C)[C@@H](C)O
B5: N-alpha-[(S)-4-Carboxy-4-(19-carboxynonadecanoylamino)butyryl]-[Glu14,Arg18,Gln21,Ala25,Pro26,Ser28,Ser29,Pro37]-pramlintide (peptide)
peptide: {C20 diacid-γGlu}-KCNTATCATQRLAEFLVRSSQNFGAPLSSTNVGSNTP-NH2
modifications: disulfide 2-7
SMILES: CC(C)C[C@H](NC(=O)[C@H](CCCNC(=N)N)NC(=O)[C@H](CCC(N)=O)NC(=O)[C@@H](NC(=O)[C@H](C)NC(=O)[C@@H]1CSSC[C@H](NC(=O)[C@H](CCCCN)NC(=O)CC[C@H](NC(=O)CCCCCCCCCCCCCCCCCCC(=O)O)C(=O)O)C(=O)N[C@@H](CC(N)=O)C(=O)N[C@@H]([C@@H](C)O)C(=O)N[C@@H](C)C(=O)N[C@@H]([C@@H](C)O)C(=O)N1)[C@@H](C)O)C(=O)N[C@@H](C)C(=O)N[C@@H](CCC(=O)O)C(=O)N[C@@H](Cc1ccccc1)C(=O)N[C@@H](CC(C)C)C(=O)N[C@H](C(=O)N[C@@H](CCCNC(=N)N)C(=O)N[C@@H](CO)C(=O)N[C@@H](CO)C(=O)N[C@@H](CCC(N)=O)C(=O)N[C@@H](CC(N)=O)C(=O)N[C@@H](Cc1ccccc1)C(=O)NCC(=O)N[C@@H](C)C(=O)N1CCC[C@H]1C(=O)N[C@@H](CC(C)C)C(=O)N[C@@H](CO)C(=O)N[C@@H](CO)C(=O)N[C@H](C(=O)N[C@@H](CC(N)=O)C(=O)N[C@H](C(=O)NCC(=O)N[C@@H](CO)C(=O)N[C@@H](CC(N)=O)C(=O)N[C@H](C(=O)N1CCC[C@H]1C(N)=O)[C@@H](C)O)C(C)C)[C@@H](C)O)C(C)C
B6: N-alpha-[2-(2-{2-[2-(2-{2-[(S)-4-Carboxy-4-(19-carboxyheptadecanoylamino)butyrylamino]ethoxy}ethoxy)acetylamino]ethoxy}ethoxy)acetyl]-[Glu14,His17,Lys21,Pro37]- … (peptide)
peptide: {19‑carboxyheptadecanoyl-γGlu-AEEA-AEEA}-KCNTATCATQRLAEFLHHSSKNFGPILPPTNVGSNTP-NH2
modifications: disulfide 2-7; reading uncertain; also: printed as N-alpha-[2-(2-{2-[2-(2-{2-[(S)-4-Carboxy-4-(19-carboxyheptadecanoylamino)butyrylamino]ethoxy}ethoxy)acetylamino]ethoxy}ethoxy)acetyl]-[Glu14,His17,Lys21,Pro37]-pramlintide
B7: N-alpha-[(S)-4-Carboxy-4-(19-carboxynonadecanoylamino)butyryl]-Glu-Arg-[Glu1,Glu14,Arg17,Gln21,Gln35,Pro37]-pramlintide (peptide)
peptide: {C20 diacid-γGlu}-ERECNTATCATQRLAEFLRHSSQNFGPILPPTNVGSQTP-NH2
modifications: disulfide 4-9
SMILES: CC[C@H](C)[C@H](NC(=O)[C@@H]1CCCN1C(=O)CNC(=O)[C@H](Cc1ccccc1)NC(=O)[C@H](CC(N)=O)NC(=O)[C@H](CCC(N)=O)NC(=O)[C@H](CO)NC(=O)[C@H](CO)NC(=O)[C@H](Cc1c[nH]cn1)NC(=O)[C@H](CCCNC(=N)N)NC(=O)[C@H](CC(C)C)NC(=O)[C@H](Cc1ccccc1)NC(=O)[C@H](CCC(=O)O)NC(=O)[C@H](C)NC(=O)[C@H](CC(C)C)NC(=O)[C@H](CCCNC(=N)N)NC(=O)[C@H](CCC(N)=O)NC(=O)[C@@H](NC(=O)[C@H](C)NC(=O)[C@@H]1CSSC[C@H](NC(=O)[C@H](CCC(=O)O)NC(=O)[C@H](CCCNC(=N)N)NC(=O)[C@H](CCC(=O)O)NC(=O)CC[C@H](NC(=O)CCCCCCCCCCCCCCCCCCC(=O)O)C(=O)O)C(=O)N[C@@H](CC(N)=O)C(=O)N[C@@H]([C@@H](C)O)C(=O)N[C@@H](C)C(=O)N[C@@H]([C@@H](C)O)C(=O)N1)[C@@H](C)O)C(=O)N[C@@H](CC(C)C)C(=O)N1CCC[C@H]1C(=O)N1CCC[C@H]1C(=O)N[C@H](C(=O)N[C@@H](CC(N)=O)C(=O)N[C@H](C(=O)NCC(=O)N[C@@H](CO)C(=O)N[C@@H](CCC(N)=O)C(=O)N[C@H](C(=O)N1CCC[C@H]1C(N)=O)[C@@H](C)O)C(C)C)[C@@H](C)O

What was measured:
[1] = target: T1, human calcitonin (a) receptor; assay: cell-based or functional assay
[2] = target: T2, human amylin 3(a) receptor (human …); assay: cell-based or functional assay

Binder | CTa receptor human EC50 [1] [nM] | Amylin receptor human EC50 [2] [nM]
B1 | 3.71 | 1.06
B2 | 0.113 | 0.203
B3 | 3.57 | 1.71
B4 | 0.076 | 0.09
B5 | 0.034 | 0.039
B6 | 0.085 | 0.071
B7 | 2.19 | 0.411
